Experimental data: the supplement of paper PMC11780869

Test system: Bacillus subtilis
Experiment: cleaved RNA product abundance (RNA/gDNA barcode ratio) relative to median wild-type variant (ratio to wild type); higher = more accumulation of the downstream cleavage product
Details: cleavage site: cggR-gapA (positions -7 to +36 mutated)
In short: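 Truncated aprE or tetM reporter mRNAs with barcoded RNase Y cleavage-site windows, mutagenized from oligos at a 9% error rate, sat in the B. subtilis chromosome. Cells grew in LB at 37°C from OD600 0.0003 to 0.3. Gel-selected cleaved RNA was reverse transcribed and its barcodes sequenced with those from genomic DNA, collapsing by UMI. Cleaved product abundance equals the RNA:gDNA barcode ratio per construct over the median construct with the unmutated site.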

[1] = experiment (reporter, strain, medium): exp 2b: truncated aprE reporter, strain BJT200
[2] = experiment (reporter, strain, medium): exp 4a: truncated aprE reporter, strain BJT201 with 2% xylose (RNase J1 expressed)
[3] = experiment (reporter, strain, medium): exp 6: tetM reporter, strain 168

Sequence | cleaved RNA product abundance [1] | cleaved RNA product abundance [2] | cleaved RNA product abundance [3]
ACAGACGAAGGAGCCGCAAAGAAGTTATTAAGGGATGAATAATCCCTCAATATATATAACTCTCACTTATTTAAA | 0.679 | 0.429 | –
ACAGACGAAGGAGCCGCAAAGAAGTTATTAAGGGATGAATAATCCCTCAATATATATATCTCTCACTTATTTAAA | 0.874 | 0.885 | 0.832
ACAGACGAAGGAGCCGCAAAGAAGTTATTAAGGGATGAATAATCCCTCAATATATATATTTCTCACTTATTTAAA | – | 0.817 | –
ACAGACGAAGGAGCCGCAAAGAAGTTATTAAGGGATGAATAATCCCTCAATATATATTTCTCTCACTTATTTAAA | – | 0.561 | –
ACAGACGAAGGAGCCGCAAAGAAGTTATTAAGGGATGAATAATCCCTCAATATCAATATCTCTCACTTATTTAAA | 0.126 | 0.103 | 0.216
ACAGACGAAGGAGCCGCAAAGAAGTTATTAAGGGATGAATAATCCCTCAATATGAATATCTCTCACTTATTTAAA | 0.153 | 0.102 | 0.0685
ACAGACGAAGGAGCCGCAAAGAAGTTATTAAGGGATGAATAATCCCTCAATATTAATATCTCTCACTTATTTAAA | 0.169 | 0.113 | 0.249
ACAGACGAAGGAGCCGCAAAGAAGTTATTAAGGGATGAATAATCCCTCAATCTAAATATCTCTCACTTATTTAAA | 0.126 | 0.138 | 0.193
ACAGACGAAGGAGCCGCAAAGAAGTTATTAAGGGATGAATAATCCCTCAATGTAAATATCTCTCACTTATTTAAA | 0.139 | 0.13 | 0.154
ACAGACGAAGGAGCCGCAAAGAAGTTATTAAGGGATGAATAATCCCTCAATTTAAATATCTCTCACTTATTTAAA | 0.182 | 0.218 | 0.195
ACAGACGAAGGAGCCGCAAAGAAGTTATTAAGGGATGAATAATCCCTCAATTTAAATGTCTCTCACTTATTTAAA | – | 0.048 | –
ACAGACGAAGGAGCCGCAAAGAAGTTATTAAGGGATGAATAATCCCTCAATTTATATATCTCTCACTTATTTAAA | – | 0.2 | –
ACAGACGAAGGAGCCGCAAAGAAGTTATTAAGGGATGAATAATCCCTCACTATAAATAACTCTCACTTATTTAAA | 0.175 | 0.285 | –
ACAGACGAAGGAGCCGCAAAGAAGTTATTAAGGGATGAATAATCCCTCACTATAAATATCTCTCACTTATTTAAA | 0.215 | 0.277 | 0.208
ACAGACGAAGGAGCCGCAAAGAAGTTATTAAGGGATGAATAATCCCTCACTATATATATCTCTCACTTATTTAAA | – | 0.319 | –
ACAGACGAAGGAGCCGCAAAGAAGTTATTAAGGGATGAATAATCCCTCAGAATAAATATCTCTCACTTATTTAAA | – | 0.197 | –
ACAGACGAAGGAGCCGCAAAGAAGTTATTAAGGGATGAATAATCCCTCAGGATAAATATCTCTCACTTATTTAAA | 0.131 | – | –
ACAGACGAAGGAGCCGCAAAGAAGTTATTAAGGGATGAATAATCCCTCAGTATAAATATCTCTCACTTATTTAAA | 0.215 | 0.305 | 0.259
ACAGACGAAGGAGCCGCAAAGAAGTTATTAAGGGATGAATAATCCCTCAGTATATATATCTCTCACTTATTTAAA | – | 0.242 | –

Sequence | cleaved RNA product abundance [1] | cleaved RNA product abundance [2] | cleaved RNA product abundance [3]
ACAGACGAAGGAGCCGCAAAGAAGTTATTAAGGGATGAATAATCCCTCATAATAAATATCTCTCACTTATTTAAA | – | 0.554 | –
ACAGACGAAGGAGCCGCAAAGAAGTTATTAAGGGATGAATAATCCCTCATATAAATATCTCTCACTTATTTAAAG | 0.394 | 0.256 | –
ACAGACGAAGGAGCCGCAAAGAAGTTATTAAGGGATGAATAATCCCTCATCATAAATATCTCTCACTTATTTAAA | 0.192 | 0.115 | –
ACAGACGAAGGAGCCGCAAAGAAGTTATTAAGGGATGAATAATCCCTCATTAAAAATATCTCTCACTTATTTAAA | 0.116 | – | –
ACAGACGAAGGAGCCGCAAAGAAGTTATTAAGGGATGAATAATCCCTCATTATAAATAACTCTCACTTATTTAAA | – | 0.248 | –
ACAGACGAAGGAGCCGCAAAGAAGTTATTAAGGGATGAATAATCCCTCATTATAAATATCTCTCACTTATTTAAA | 0.263 | 0.383 | 0.395
ACAGACGAAGGAGCCGCAAAGAAGTTATTAAGGGATGAATAATCCCTCATTATAAATCTCTCTCACTTATTTAAA | 0.236 | – | –
ACAGACGAAGGAGCCGCAAAGAAGTTATTAAGGGATGAATAATCCCTCATTTTAAATATCTCTCACTTATTTAAA | – | 0.191 | –
ACAGACGAAGGAGCCGCAAAGAAGTTATTAAGGGATGAATAATCCCTCCAAATAAATATCTCTCACTTATTTAAA | 0.239 | 0.313 | –
ACAGACGAAGGAGCCGCAAAGAAGTTATTAAGGGATGAATAATCCCTCCACATAAATATCTCTCACTTATTTAAA | 0.108 | – | –
ACAGACGAAGGAGCCGCAAAGAAGTTATTAAGGGATGAATAATCCCTCCATATAAATATCTCTCACTTATTTAAA | 0.243 | 0.341 | 0.34
ACAGACGAAGGAGCCGCAAAGAAGTTATTAAGGGATGAATAATCCCTCCATATAAATTTCTCTCACTTATTTAAA | – | 0.23 | –
ACAGACGAAGGAGCCGCAAAGAAGTTATTAAGGGATGAATAATCCCTCCCTATAAATATCTCTCACTTATTTAAA | – | 0.212 | –
ACAGACGAAGGAGCCGCAAAGAAGTTATTAAGGGATGAATAATCCCTCGATATAAATATCTCTCACTTATTTAAA | 0.348 | 0.419 | 0.589
ACAGACGAAGGAGCCGCAAAGAAGTTATTAAGGGATGAATAATCCCTCGTTATAAATATCTCTCACTTATTTAAA | 0.097 | 0.157 | –
ACAGACGAAGGAGCCGCAAAGAAGTTATTAAGGGATGAATAATCCCTCTAAATAAATATCTCTCACTTATTTAAA | 0.36 | 0.429 | –
ACAGACGAAGGAGCCGCAAAGAAGTTATTAAGGGATGAATAATCCCTCTACATAAATATCTCTCACTTATTTAAA | – | 0.441 | –
ACAGACGAAGGAGCCGCAAAGAAGTTATTAAGGGATGAATAATCCCTCTAGATAAATATCTCTCACTTATTTAAA | – | 0.266 | –
ACAGACGAAGGAGCCGCAAAGAAGTTATTAAGGGATGAATAATCCCTCTATATAAACATCTCTCACTTATTTAAA | 0.362 | – | –

Sequence | cleaved RNA product abundance [1] | cleaved RNA product abundance [2] | cleaved RNA product abundance [3]
ACAGACGAAGGAGCCGCAAAGAAGTTATTAAGGGATGAATAATCCCTCTATATAAATACCTCTCACTTATTTAAA | – | 0.407 | –
ACAGACGAAGGAGCCGCAAAGAAGTTATTAAGGGATGAATAATCCCTCTATATAAATATCTCTCACTTATTTAAA | 0.42 | 0.489 | 0.642
ACAGACGAAGGAGCCGCAAAGAAGTTATTAAGGGATGAATAATCCCTCTATATAAATCTCTCTCACTTATTTAAA | – | 0.529 | –
ACAGACGAAGGAGCCGCAAAGAAGTTATTAAGGGATGAATAATCCCTCTATATAATTATCTCTCACTTATTTAAA | 0.29 | 0.309 | –
ACAGACGAAGGAGCCGCAAAGAAGTTATTAAGGGATGAATAATCCCTCTATATACATATCTCTCACTTATTTAAA | 0.248 | 0.226 | –
ACAGACGAAGGAGCCGCAAAGAAGTTATTAAGGGATGAATAATCCCTCTATATATATATCTCTCACTTATTTAAA | – | 0.418 | –
ACAGACGAAGGAGCCGCAAAGAAGTTATTAAGGGATGAATAATCCCTCTATCTAAATATCTCTCACTTATTTAAA | – | 0.101 | –
ACAGACGAAGGAGCCGCAAAGAAGTTATTAAGGGATGAATAATCCCTCTATGTAAATATCTCTCACTTATTTAAA | 0.16 | 0.0964 | –
ACAGACGAAGGAGCCGCAAAGAAGTTATTAAGGGATGAATAATCCCTCTCTATAAATATCTCTCACTTATTTAAA | – | 0.372 | –
ACAGACGAAGGAGCCGCAAAGAAGTTATTAAGGGATGAATAATCCCTCTGTATAAATATCTCTCACTTATTTAAA | 0.163 | 0.224 | –
ACAGACGAAGGAGCCGCAAAGAAGTTATTAAGGGATGAATAATCCCTGAAAATAAATATCTCTCACTTATTTAAA | – | 0.615 | –
ACAGACGAAGGAGCCGCAAAGAAGTTATTAAGGGATGAATAATCCCTGAACATAAATATCTCTCACTTATTTAAA | – | 0.242 | –
ACAGACGAAGGAGCCGCAAAGAAGTTATTAAGGGATGAATAATCCCTGAAGATAAATATCTCTCACTTATTTAAA | – | 0.387 | –
ACAGACGAAGGAGCCGCAAAGAAGTTATTAAGGGATGAATAATCCCTGAATATAAACATCTCTCACTTATTTAAA | – | 0.413 | –
ACAGACGAAGGAGCCGCAAAGAAGTTATTAAGGGATGAATAATCCCTGAATATAAATAGCTCTCACTTATTTAAA | – | 0.256 | –
ACAGACGAAGGAGCCGCAAAGAAGTTATTAAGGGATGAATAATCCCTGAATATAAATATCTCTCACTTATTTAAA | 0.566 | 0.684 | 0.675
ACAGACGAAGGAGCCGCAAAGAAGTTATTAAGGGATGAATAATCCCTGAATATATATATCTCTCACTTATTTAAA | 0.477 | 0.598 | –
ACAGACGAAGGAGCCGCAAAGAAGTTATTAAGGGATGAATAATCCCTTAAAATAAATATCTCTCACTTATTTAAA | – | 0.862 | –
